Entries after “also recorded” stand apart in the source; their conditions may differ. Square brackets hold non-standard residues; d marks the D form. Ends that are not written are not given here. Peptide text beside a SMILES is read from it. Nle = CCCC[C@H](N)C(=O)O
How the values were obtained:
βENaC-Tg mice = type: in vivo; settings: βENaC-Tg C57BL:C3H mice, fourteen-day treatment; FIGS. 7C, 7D, 7F
Source text: Like CF patients, βENaC-Tg mice are disease free at birth, but soon develop obstructive lung disease (Zhou, Z., et al. Am J Respir Crit Care Med 178, 1245-1256 (2008)). C57BL:FVB and C57BL:C3H mixed strains have 90% and 50% mortality, respectively, and the reproducibility of the disease on these backgrounds is sufficiently high that reliable data are produced with n of about 8-10 animals/group. Furthermore, the βENaC-Tg mouse responds to therapeutic interventions in a fashion similar to CF/COPD in humans, and the development of lung disease can be prevented following inhibition of lung disease at birth (Livraghi, A., et al. J Immunol 182, 4357-4367 (2009)). S18-derived peptides or vehicle were dosed one to three times a day by intranasal instillation (1 μl/g body weight) for 14 days in parallel cohorts of mice. Mice were weighed daily and, if a diuretic effect was found, the volume excreted was replaced by sub-cutaneous injections of sterile saline. At the end of the treatment, mice were sacrificed for phenotypic analysis.

ENaC [1] = biological target: T1, ENaC (Homo sapiens, UniProt P37088+P51168+P51170); test: Airway surface liquid (ASL) height in human bronchial epithelial cultures by XZ-confocal microscopy; type: cell-based; settings: peptides added mucosally to HBECs at 30 μM, ASL height measured 3 h later; FIGS. 2A-2B
T1 construct: endogenous in cells; host or cells: primary human bronchial epithelial cultures (HBECs) at air-liquid interface
T1 sequence (P37088 1-669): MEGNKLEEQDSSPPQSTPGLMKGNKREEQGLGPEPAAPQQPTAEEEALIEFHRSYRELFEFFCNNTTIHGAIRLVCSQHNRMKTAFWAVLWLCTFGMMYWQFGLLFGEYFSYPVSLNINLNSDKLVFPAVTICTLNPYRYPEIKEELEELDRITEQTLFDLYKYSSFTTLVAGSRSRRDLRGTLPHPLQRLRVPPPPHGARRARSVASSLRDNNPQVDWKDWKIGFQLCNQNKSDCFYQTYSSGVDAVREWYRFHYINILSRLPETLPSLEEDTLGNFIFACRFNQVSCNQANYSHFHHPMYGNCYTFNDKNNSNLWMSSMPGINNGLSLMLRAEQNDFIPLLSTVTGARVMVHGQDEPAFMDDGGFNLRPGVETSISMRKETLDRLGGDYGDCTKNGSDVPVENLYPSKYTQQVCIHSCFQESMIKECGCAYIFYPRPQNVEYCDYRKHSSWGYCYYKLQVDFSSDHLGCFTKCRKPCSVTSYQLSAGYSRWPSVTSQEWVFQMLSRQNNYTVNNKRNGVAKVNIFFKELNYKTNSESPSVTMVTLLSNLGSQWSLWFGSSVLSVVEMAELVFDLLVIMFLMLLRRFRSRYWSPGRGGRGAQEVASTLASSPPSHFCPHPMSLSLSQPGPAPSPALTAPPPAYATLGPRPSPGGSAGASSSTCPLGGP
T1 sequence (P51168 1-640): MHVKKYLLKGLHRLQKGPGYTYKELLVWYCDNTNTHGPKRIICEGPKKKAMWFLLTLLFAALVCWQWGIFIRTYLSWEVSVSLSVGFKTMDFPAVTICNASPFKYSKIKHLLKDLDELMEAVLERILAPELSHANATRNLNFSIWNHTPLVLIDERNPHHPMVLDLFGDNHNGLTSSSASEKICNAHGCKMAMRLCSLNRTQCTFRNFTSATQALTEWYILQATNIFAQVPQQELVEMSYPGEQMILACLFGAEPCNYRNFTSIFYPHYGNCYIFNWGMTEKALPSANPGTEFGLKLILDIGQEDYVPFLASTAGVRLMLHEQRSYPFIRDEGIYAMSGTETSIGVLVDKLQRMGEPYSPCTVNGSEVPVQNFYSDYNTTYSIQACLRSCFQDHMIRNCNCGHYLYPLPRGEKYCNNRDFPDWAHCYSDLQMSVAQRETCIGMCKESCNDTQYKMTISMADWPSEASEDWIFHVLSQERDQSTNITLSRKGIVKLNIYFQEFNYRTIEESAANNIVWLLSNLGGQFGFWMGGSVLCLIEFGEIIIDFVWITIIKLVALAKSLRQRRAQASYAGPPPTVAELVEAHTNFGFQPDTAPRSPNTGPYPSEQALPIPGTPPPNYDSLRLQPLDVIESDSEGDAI
T1 sequence (P51170 1-649): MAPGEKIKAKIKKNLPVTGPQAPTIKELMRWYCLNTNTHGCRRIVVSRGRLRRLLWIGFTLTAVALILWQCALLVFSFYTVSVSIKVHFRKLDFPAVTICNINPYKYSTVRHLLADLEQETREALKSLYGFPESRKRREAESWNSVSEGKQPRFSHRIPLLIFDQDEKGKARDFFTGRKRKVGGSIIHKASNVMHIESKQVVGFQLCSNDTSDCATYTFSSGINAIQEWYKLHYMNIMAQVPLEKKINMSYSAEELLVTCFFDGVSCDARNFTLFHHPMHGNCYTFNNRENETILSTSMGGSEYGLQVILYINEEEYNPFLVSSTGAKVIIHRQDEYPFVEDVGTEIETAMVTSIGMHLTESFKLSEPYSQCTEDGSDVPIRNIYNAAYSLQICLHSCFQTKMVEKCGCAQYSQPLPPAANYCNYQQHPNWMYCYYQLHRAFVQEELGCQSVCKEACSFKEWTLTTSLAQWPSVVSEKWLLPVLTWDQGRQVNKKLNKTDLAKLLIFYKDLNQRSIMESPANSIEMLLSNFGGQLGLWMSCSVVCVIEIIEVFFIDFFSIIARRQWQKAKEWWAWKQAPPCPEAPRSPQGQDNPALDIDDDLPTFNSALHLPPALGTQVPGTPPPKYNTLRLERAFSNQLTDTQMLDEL
Source text: Cells were harvested by enzymatic digestion from human bronchial tissue as previously described under a protocol approved by the UNC School of Medicine IRB (Tarran et al., J. Gen. Physiol. 127:591 (2006)). Human excess donor lungs and excised recipient lungs were obtained at the time of lung transplantation from portions of main stem or […] bronchi and cells were harvested by enzymatic digestion. All preparations were maintained at an air-liquid interface in a modified bronchial epithelial medium and used 2-5 weeks after seeding on 12 mm T-Clear inserts (Corning Costar) coated with human placental type VI collagen (Sigma). Phosphate buffered saline (PBS) was used for washing human bronchial epithelial culture mucosal surfaces.
To label airway surface liquid, Ringer containing rhodamine-dextran (2 mg/ml; Invitrogen) was added to human bronchial epithelial culture mucosal surfaces. […] 10 points per culture were scanned and an average airway surface liquid height determined. […]
To confirm our alanine-scan data, we made a peptide of subsequence A (LPVPLDQT (SEQ ID NO:113); FIG. 1). […] Peptides were added mucosally to HBECs at 30 μM and ASL height measured 3 h later by XZ-confocal microscopy. […]

ENaC [2] = biological target: T1, ENaC; test: as above; type: cell-based; settings: FIGS. 3A, 3B; for potency compared to S18 (dose response): 4
alpha-ENaC = biological target: T2, alpha-ENaC (Homo sapiens, UniProt P37088+P51168+P51170); test: Internalization of alpha-ENaC in HEK293T cells, GFP-tagged alpha-ENaC co-expressed with beta and gamma ENaC; type: cell-based; settings: beta-ENaC co-expressed, FIGS. 5A-5U
T2 construct: expressed in transfected cells; host or cells: HEK293T
T2 sequence (P37088 1-669): T1 sequence (P37088 1-669)
T2 sequence (P51168 1-640): T1 sequence (P51168 1-640)
T2 sequence (P51170 1-649): T1 sequence (P51170 1-649)
Source text: HEK293T cells were transfected with gfp-αENaC where gfp was fused at the N-terminus of ENaC and unlabeled βENaC and γENaC using lipofectamine in 384 well plates as per the manufacturer's instructions and as published previously (see, e.g., Hobbs et al. Am J Physiol Lung Cell Mol Physiol. 2013 December; 305(12):L990-L1001. doi: 10.1152/ajplung.00103.2013. Epub 2013 October; Garland et al. Proc Natl Acad Sci USA. 2013 Oct. 1; 110(40):15973-8. doi: 10.1073/pnas.1311999110. Epub 2013 Sep. 16.; Tan et al. J Physiol. 2014 Dec. 1; 592(Pt 23):5251-68). Twenty-four hours later, peptide or vehicle control were added at t=0 and fluorescence was read using a Tecan M1000 plate reader 3 h later. Fluorescence was read at 488 nm (excitation)/510 nm (emission).

| Compound | efficacy compared to S18 (dose response) (ENaC [2]) | potency compared to S18 (dose response) (ENaC [2]) | other results |
| --- | --- | --- | --- |
| SEQ ID NO:127: NH3-LPIPLDQT-NH2 (H-LPIPLDQT-NH2) |  |  | percent survival (βENaC-Tg mice): increased percent survival |
| DQTLPLNVNP (not fully specified) [SEQ ID NO:114, NH3-…-NH2, overlapping control peptide of S18] |  |  | activity on ASL height / inhibition of ENaC compared with S18 (ENaC [1]): inactive |
| aaLPVPNleDQTaa [SEQ ID NO:6] | diminished |  |  |
| aaLPVPLDQSaa ([dA][dA]LPVPLDQS[dA][dA]-NH2; N-terminus assumed; SMILES CC(C)C[C@H](NC(=O)[C@@H]1CCCN1C(=O)[C@@H](NC(=O)[C@@H]1CCCN1C(=O)[C@H](CC(C)C)NC(=O)[C@@H](C)NC(=O)[C@@H](C)N)C(C)C)C(=O)N[C@@H](CC(=O)O)C(=O)N[C@@H](CCC(N)=O)C(=O)N[C@@H](CO)C(=O)N[C@H](C)C(=O)N[C@H](C)C(N)=O) [SEQ ID NO:9] |  | diminished |  |
| CCCC[C@H](NC(=O)[C@@H]1CCCN1C(=O)[C@H](CC(C)C)NC(=O)[C@@H](C)NC(=O)[C@@H](C)N)C(=O)N1CCC[C@H]1C(=O)N[C@@H](CC(C)C)C(=O)N[C@@H](CC(=O)O)C(=O)N[C@@H](CCC(N)=O)C(=O)N[C@H](C(=O)N[C@H](C)C(=O)N[C@H](C)C(N)=O)[C@@H](C)O [SEQ ID NO:5, aaLPNlePLDQTaa] (H-[dA][dA]LP[Nle]PLDQT[dA][dA]-NH2; N-terminus assumed) |  | log-fold increase in potency; also recorded: significant increase in potency; also recorded: increased potency |  |
| aaLPVPLDQTLPLNVNPaa ([dA][dA]LPVPLDQTLPLNVNP[dA][dA]-NH2; N-terminus assumed; SMILES CC(C)C[C@H](NC(=O)[C@@H]1CCCN1C(=O)[C@H](CC(C)C)NC(=O)[C@@H](NC(=O)[C@H](CCC(N)=O)NC(=O)[C@H](CC(=O)O)NC(=O)[C@H](CC(C)C)NC(=O)[C@@H]1CCCN1C(=O)[C@@H](NC(=O)[C@@H]1CCCN1C(=O)[C@H](CC(C)C)NC(=O)[C@@H](C)NC(=O)[C@@H](C)N)C(C)C)[C@@H](C)O)C(=O)N[C@@H](CC(N)=O)C(=O)N[C@H](C(=O)N[C@@H](CC(N)=O)C(=O)N1CCC[C@H]1C(=O)N[C@H](C)C(=O)N[C@H](C)C(N)=O)C(C)C) [SEQ ID NO:2, a = D-alanine] | equal | equal |  |
| aaLPVPLDQTaa ([dA][dA]LPVPLDQT[dA][dA]-NH2; N-terminus assumed; SMILES CC(C)C[C@H](NC(=O)[C@@H]1CCCN1C(=O)[C@@H](NC(=O)[C@@H]1CCCN1C(=O)[C@H](CC(C)C)NC(=O)[C@@H](C)NC(=O)[C@@H](C)N)C(C)C)C(=O)N[C@@H](CC(=O)O)C(=O)N[C@@H](CCC(N)=O)C(=O)N[C@H](C(=O)N[C@H](C)C(=O)N[C@H](C)C(N)=O)[C@@H](C)O) [SEQ ID NO:3, a = D-alanine] | identical dose responses; also recorded: equal | identical dose responses; also recorded: equal |  |
| N=C(N)NC(=O)c1nc(Cl)c(N)nc1N [amiloride] |  |  | reduction of alpha-ENaC / functional receptor on the cell surface (alpha-ENaC): does not reduce the amount of functional receptor on the surface of cells |
